Laboratory results taken from publication doi:10.1101/2020.04.16.045526.

B1: HapR BS 2 probe (32 bp) (dsDNA)
DNA 1: AATTGCAATTGATAAATTTCTTGGCTAGGTGT
DNA 2: ACACCTAGCCAAGAAATTTATCAATTGCAATT
modifications: Cy5-dCTP added to the 3' end of one strand by TdT (strand not stated)
B2: HapR BS 1 probe (32 bp) (dsDNA)
DNA 1: TAGGTTTGTTAGTGTTTACTTACTTATTTGGC
DNA 2: GCCAAATAAGTAAGTAAACACTAACAAACCTA
modifications: Cy5-dCTP added to the 3' end of one strand by TdT (strand not stated)

Molecular target: HapR (Vibrio cholerae E7946 (El Tor), UniProt Q4F6W7 1-203)
Assay: EMSA

Binder	binding result
B1	binds
B2	binds
